These results are taken from PMC2935968 (2010).

The experiment concerns the target T1, CHORDII domain of cress (Arabidopsis thaliana) Rar1 (Arabidopsis thaliana, UniProt Q9SE33 149-221).
T1 chain: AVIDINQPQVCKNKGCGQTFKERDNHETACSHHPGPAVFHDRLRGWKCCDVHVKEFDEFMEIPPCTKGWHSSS
Description: ITC. Background: Isothermal titration calorimetry measures the heat released or taken up as one component is titrated into another.

B1: N-terminal domain of barley (Hordeum vulgare) Hsp90 (domain or fragment)
chain: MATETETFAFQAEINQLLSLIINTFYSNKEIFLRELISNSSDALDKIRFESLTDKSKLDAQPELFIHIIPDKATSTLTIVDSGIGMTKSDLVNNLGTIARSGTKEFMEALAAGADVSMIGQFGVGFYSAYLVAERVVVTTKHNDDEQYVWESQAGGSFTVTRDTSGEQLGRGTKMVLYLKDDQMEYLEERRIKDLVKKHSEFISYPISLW
For B1, the Kd (commonly a measure of binding affinity in units of concentration) turned out to be 22.3 µM.
